Experimental findings from article PMC3499988 (Biochemistry, 2011) are described below.

Positions count from the first letter of the chain named. Names may count otherwise.

To fix the notation:
B1: Fab m18 S56A (LCDR2) (Fab, V domains shown)
VH: VQLLESGPGVVKPSETLSLTCTVSGASVNNYYWTWVRQPPGKGLEWIGNVYDSGDTNYNPSLSSRLSLSMDTSKNQFSLRLSSVTAADTATYYCARYHRHFIRGPLSFDYWGRGTLVTVSS
VL: LQMTQSPSFLSASVGDRVSITCRASQDIQKFLAWYQLTPGDAPKLLMYSASTLQAGVPSRFSGSGSGTEFTLTISGLQPEDFATYYCQHLKRYPYTFGQGTKLEIS
B2: Fab m18 S54A (HCDR2) (Fab, V domains shown)
VH: B1 VH with S53A
VL: B1 VL with A55S
B3: Fab m18 H96A (HCDR3) (Fab, V domains shown)
VH: B1 VH with H98A
VL: B1 VL with A55S
B4: Fab m18 D53A (HCDR2) (Fab, V domains shown)
VH: B1 VH with D52A
VL: B1 VL with A55S
B5: Fab m18 R93A (LCDR3) (Fab, V domains shown)
VH: B1 VH
VL: B1 VL with A55S, R92A
B6: Fab m18 T57A (HCDR2) (Fab, V domains shown)
VH: B1 VH with T56A
VL: B1 VL with A55S
B7: Fab m18 Y33A (HCDR1) (Fab, V domains shown)
VH: B1 VH with Y32A
VL: B1 VL with A55S
B8: Fab m18 S64A (HCDR2) (Fab, V domains shown)
VH: B1 VH with S63A
VL: B1 VL with A55S
B9: Fab m18 R100aA (HCDR3) (Fab, V domains shown)
VH: B1 VH with R103A
VL: B1 VL with A55S
B10: Fab m18 S62A (HCDR2) (Fab, V domains shown)
VH: B1 VH with S61A
VL: B1 VL with A55S
B11: Fab m18 P61A (HCDR2) (Fab, V domains shown)
VH: B1 VH with P60A
VL: B1 VL with A55S
B12: Fab m18 S65A (HCDR2) (Fab, V domains shown)
VH: B1 VH with S64A
VL: B1 VL with A55S
B13: Fab m18 D56A (HCDR2) (Fab, V domains shown)
VH: B1 VH with D55A
VL: B1 VL with A55S
B14: Fab m18 P95A (LCDR3) (Fab, V domains shown)
VH: B1 VH
VL: B1 VL with A55S, P94A
B15: Fab m18 Y33F (HCDR1) (Fab, V domains shown)
VH: B1 VH with Y32F
VL: B1 VL with A55S
B16: Fab m18 Y32A (HCDR1) (Fab, V domains shown)
VH: B1 VH with Y31A
VL: B1 VL with A55S

A word on the IC50: it is the concentration needed to halve the response being measured. A high value points to a need for much substance. A word on the Kd: it is a measure of binding affinity in units of concentration. A word on the koff: it is the rate constant with which the complex falls apart. The term kon denotes the second-order rate constant of association. Lower therefore signals slower complex formation.

One assay has as its target T1, HIV-1 YU-2 gp120 (HIV-1 (YU-2), UniProt P35961). Kind of assay: SPR. For orientation: In SPR one partner is held on a chip, and binding of the other changes the refractive index at the surface.
For the molecule B1, the IC50 was over 500 nM.

As to B2, the IC50 was over 1000 nM.

For B3, the IC50 is over 500 nM.

Molecule B4 returned an IC50 of over 500 nM.

B5 showed an IC50 of 49.5 ± 20.5 nM.

For B6, the IC50 came to 16.8 ± 3.8 nM.

B7 registered an IC50 of 135 ± 7.1 nM.

For B8, the IC50 is over 1000 nM.

Regarding B9, the IC50 is over 500 nM.

Regarding B10, the IC50 was over 1000 nM.

As for B11, the IC50 was over 1000 nM.

B12 displayed an IC50 of over 1000 nM.

Consider B13, for which the IC50 was over 1000 nM.

B14 came in with an IC50 of over 1000 nM.

Turning to B15, the IC50 is over 1000 nM.

Consider B16, for which the IC50 is 247 ± 15.8 nM.

In another assay the target is T1, HIV-1 YU-2 gp120. Nature of the assay: SPR. This is another data set of the same source.
Consider B1, for which the IC50 was over 500 nM.

In the case of B2, the IC50 is over 1000 nM.

In the case of B3, the IC50 was over 500 nM.

With B4, the IC50 was over 500 nM.

In turn, B5 returned an IC50 of 78.7 ± 3.2 nM.

Regarding B6, the IC50 was 33.1 ± 8 nM.

B7: the IC50 was found to be 150 ± 3.5 nM.

For B8, the IC50 is over 1000 nM.

Molecule B9 had an IC50 of over 500 nM.

As for B10, the IC50 was over 1000 nM.

In turn, B11 returned a concentration for half-maximal inhibition (IC50) of over 1000 nM.

Regarding B12, the IC50 is over 1000 nM.

B13: the IC50 was over 1000 nM.

The molecule B14 had an IC50 of over 1000 nM.

Consider B15, for which the IC50 is over 1000 nM.

Regarding B16, the IC50 was found to be 432 ± 31.5 nM.

The next assay concerns the target T1, HIV-1 YU-2 gp120. Kind of assay: SPR. The source holds these as a separate data set.
In the case of B1, the dissociation constant (Kd) stood at 25.7 nM, the koff was 0.00066 ± 1.4 s⁻¹ and the kon was 28000 ± 0.7 M⁻¹ s⁻¹.

The molecule B2 came in with a Kd of 56.4 nM, a koff of 0.0022 ± 0.7 s⁻¹ and a kon of 39000 ± 0.5 M⁻¹ s⁻¹.

B3 had a Kd of 11.7 nM, a koff of 0.0011 ± 0.6 s⁻¹ and a kon of 93000 ± 2.9 M⁻¹ s⁻¹.

B4 returned a Kd of 7 nM, a koff of 0.00012 ± 1.1 s⁻¹ and a kon of 16000 ± 1.3 M⁻¹ s⁻¹.

B5 came in with a Kd of 2 nM, a koff of 8e-05 s⁻¹ and a kon of 39000 ± 0.2 M⁻¹ s⁻¹.

Molecule B6 returned a Kd of 2.5 nM, a koff of 0.00021 ± 0.4 s⁻¹ and a kon of 84000 ± 2 M⁻¹ s⁻¹.

In turn, B7 yielded a Kd of 30.7 nM, a koff of 0.0038 ± 0.2 s⁻¹ and a kon of 120000 ± 0.5 M⁻¹ s⁻¹.

Regarding B8, the affinity, expressed as Kd, was 40 nM; the koff worked out at 0.00086 ± 5.9 s⁻¹; the kon stood at 21000 ± 0.7 M⁻¹ s⁻¹.

Consider B9, for which the dissociation constant Kd was determined as 2.3 nM, the koff turned out to be 7.6e-05 s⁻¹ and the kon was 34000 ± 0.9 M⁻¹ s⁻¹.

Turning to B10, the Kd was determined as 44.2 nM, the koff was determined as 0.0016 ± 0.4 s⁻¹ and the kon stood at 35000 ± 0.9 M⁻¹ s⁻¹.

Regarding B11, the Kd amounted to 19.3 nM, the koff was found to be 0.00063 ± 1 s⁻¹ and the kon was 33000 ± 1 M⁻¹ s⁻¹.

On to B12, for which the Kd was 39.1 nM, the koff came to 0.0014 ± 0.2 s⁻¹ and the kon came out at 36000 ± 1.2 M⁻¹ s⁻¹.

B13: the Kd came out at 26.2 nM, the koff is 0.00061 ± 4.5 s⁻¹ and the kon is 25000 ± 0.6 M⁻¹ s⁻¹.

The molecule B14 showed a Kd of 35.5 nM, a koff of 0.0019 ± 0.3 s⁻¹ and an association rate constant (kon) of 53000 ± 1.6 M⁻¹ s⁻¹.

B15 displayed a Kd of 56.3 nM, a koff of 0.0024 ± 0.8 s⁻¹ and a kon of 42000 ± 1.9 M⁻¹ s⁻¹.

For B16, the Kd came to 0.4 nM, the koff was found to be 6.1e-05 s⁻¹ and the kon is 120000 ± 0.2 M⁻¹ s⁻¹.
